Assay results from IntAct's records for PubMed 10946006.

B1: Microsomal triglyceride transfer protein large subunit (Homo sapiens), P55157 (parent)
chain: MILLAVLFLCFISSYSASVKGHTTGLSLNNDRLYKLTYSTEVLLDRGKGKLQDSVGYRISSNVDVALLWRNPDGDDDQLIQITMKDVNVENVNQQRGEKSIFKGKSPSKIMGKENLEALQRPTLLHLIHGKVKEFYSYQNEAVAIENIKRGLASLFQTQLSSGTTNEVDISGNCKVTYQAHQDKVIKIKALDSCKIARSGFTTPNQVLGVSSKATSVTTYKIEDSFVIAVLAEETHNFGLNFLQTIKGKIVSKQKLELKTTEAGPRLMSGKQAAAIIKAVDSKYTAIPIVGQVFQSHCKGCPSLSELWRSTRKYLQPDNLSKAEAVRNFLAFIQHLRTAKKEEILQILKMENKEVLPQLVDAVTSAQTSDSLEAILDFLDFKSDSSIILQERFLYACGFASHPNEELLRALISKFKGSIGSSDIRETVMIITGTLVRKLCQNEGCKLKAVVEAKKLILGGLEKAEKKEDTRMYLLALKNALLPEGIPSLLKYAEAGEGPISHLATTALQRYDLPFITDEVKKTLNRIYHQNRKVHEKTVRTAAAAIILNNNPSYMDVKNILLSIGELPQEMNKYMLAIVQDILRFEMPASKIVRRVLKEMVAHNYDRFSRSGSSSAYTGYIERSPRSASTYSLDILYSGSGILRRSNLNIFQYIGKAGLHGSQVVIEAQGLEALIAATPDEGEENLDSYAGMSAILFDVQLRPVTFFNGYSDLMSKMLSASGDPISVVKGLILLIDHSQELQLQSGLKANIEVQGGLAIDISGAMEFSLWYRESKTRVKNRVTVVITTDITVDSSFVKAGLETSTETEAGLEFISTVQFSQYPFLVCMQMDKDEAPFRQFEKKYERLSTGRGYVSQKRKESVLAGCEFPLHQENSEMCKVVFAPQPDSTSSGWF
partner: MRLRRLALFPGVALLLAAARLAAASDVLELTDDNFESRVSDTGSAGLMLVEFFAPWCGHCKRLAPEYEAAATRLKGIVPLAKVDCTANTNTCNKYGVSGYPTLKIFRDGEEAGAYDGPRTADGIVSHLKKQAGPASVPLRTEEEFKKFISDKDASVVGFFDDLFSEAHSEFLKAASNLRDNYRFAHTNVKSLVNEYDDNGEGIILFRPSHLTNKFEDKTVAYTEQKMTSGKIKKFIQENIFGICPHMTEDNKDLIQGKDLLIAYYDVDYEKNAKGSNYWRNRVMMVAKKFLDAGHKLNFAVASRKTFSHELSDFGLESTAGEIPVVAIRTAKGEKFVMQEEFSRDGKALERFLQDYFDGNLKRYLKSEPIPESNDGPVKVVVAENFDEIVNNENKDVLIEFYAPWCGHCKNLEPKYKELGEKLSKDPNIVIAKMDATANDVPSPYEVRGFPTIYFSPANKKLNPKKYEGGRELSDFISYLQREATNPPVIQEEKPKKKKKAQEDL

Variants of: B1
Conditions: with pdia3_chlae PDIA3, Q4VIT4

Row | effect of a mutation on the interaction | Variant
1 | with no effect | N780Y
